Results reported in US20240199757A1 (UNIVERSITY OF CHICAGO, published 2024).
Where a chain is given by its changes, count along the chain named.

T1: human NT5E expressed on MDA-MB-231 cells (human, UniProt P21589 27-549)
T1 sequence (looked up): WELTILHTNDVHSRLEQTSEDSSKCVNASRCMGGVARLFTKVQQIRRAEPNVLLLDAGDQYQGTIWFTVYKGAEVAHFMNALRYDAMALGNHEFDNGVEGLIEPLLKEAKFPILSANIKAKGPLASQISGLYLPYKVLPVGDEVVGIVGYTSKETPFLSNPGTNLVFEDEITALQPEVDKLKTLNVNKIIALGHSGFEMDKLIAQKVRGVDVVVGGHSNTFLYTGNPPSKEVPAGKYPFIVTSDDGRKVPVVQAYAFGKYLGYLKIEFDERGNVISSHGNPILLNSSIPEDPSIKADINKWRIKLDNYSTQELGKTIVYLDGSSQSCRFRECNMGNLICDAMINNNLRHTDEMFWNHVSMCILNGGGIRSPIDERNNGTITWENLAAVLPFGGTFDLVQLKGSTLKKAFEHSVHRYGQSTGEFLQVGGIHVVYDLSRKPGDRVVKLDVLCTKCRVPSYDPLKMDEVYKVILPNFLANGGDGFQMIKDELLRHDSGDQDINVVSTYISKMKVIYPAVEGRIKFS

T2: Full-length cynomolgus NT5E (recombinant) (cynomolgus, UniProt P21589 27-549 (human entry))
T2 construct: also called cNT5E; cyno NT5E
T2 chain: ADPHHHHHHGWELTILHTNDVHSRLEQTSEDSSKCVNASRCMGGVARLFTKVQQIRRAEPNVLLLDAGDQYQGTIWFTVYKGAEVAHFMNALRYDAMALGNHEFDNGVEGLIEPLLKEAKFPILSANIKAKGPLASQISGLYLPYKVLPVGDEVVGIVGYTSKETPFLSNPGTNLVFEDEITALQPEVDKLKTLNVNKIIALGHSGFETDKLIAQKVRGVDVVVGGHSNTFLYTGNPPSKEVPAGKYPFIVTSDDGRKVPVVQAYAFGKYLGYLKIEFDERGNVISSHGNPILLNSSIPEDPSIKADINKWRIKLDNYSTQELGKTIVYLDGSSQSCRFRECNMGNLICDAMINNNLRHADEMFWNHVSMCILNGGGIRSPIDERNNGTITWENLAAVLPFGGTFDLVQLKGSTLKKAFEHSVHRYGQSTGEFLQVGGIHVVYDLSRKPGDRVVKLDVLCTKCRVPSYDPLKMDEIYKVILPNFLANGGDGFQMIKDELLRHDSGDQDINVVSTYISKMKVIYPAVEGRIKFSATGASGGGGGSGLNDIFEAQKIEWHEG

T3: Full-length human NT5E (recombinant, in-house) (human, UniProt P21589 27-549)
T3 construct: also called hNT5E; hNT5EWT
T3 sequence: T2 chain with T209M, M363T, I476V

B1: 1789 Fab (Fab, V domains shown)
VH: EVQLVESGGGLVQPGGSLRLSCAASGFNVSYSSIHWVRQAPGKGLEWVASISSSSGYTYYADSVKGRFTISADTSKNTAYLQMNSLRAEDTAVYYCARNYWGWYPFYYFAFDYWGQGTLVTV
VL: DIQMTQSPSSLSASVGDRVTITCRASQSVSSAVAWYQQKPGKAPKLLIYSASSLYSGVPSRFSGSRSGTDFTLTISSLQPEDFATYYCQQGWDYPITFGQGTKVEIKR
B2: 1789 IgG (antibody, V domains shown)
VH: EVQLVESGGGLVQPGGSLRLSCAASGFNVSYSSIHWVRQAPGKGLEWVASISSSSGYTYYADSVKGRFTISADTSKNTAYLQMNSLRAEDTAVYYCARNYWGWYPFYYFAFDYWGQGTLVTVSS
VL: B1 VL

Tests used:
[1] = target: T1, human NT5E expressed on MDA-MB-231 cells; test: cell-based or functional assay
[2] = target: T2, Full-length cynomolgus NT5E …; test: ELISA, biotinylated NT5E on neutravidin plate, 1 mM ATP
Experimental: (§1) (B) Protein ELISA: Protein-based multipoint ELISA was performed to estimate the affinity of the generated Fabs and IgGs to NT5E. The binding of the Fabs and IgGs to the closed form of NT5E were determined in ELISA buffer (HBST) supplemented with 10 μM zinc chloride and 1 mM ATP while the binding of the same to open form of NT5E were determined in ELISA buffer (HBST) without any cofactors. A fixed concentration of the immobilized target (50 nM) on ELISA plate was incubated with 3-fold serial dilutions of the purified Fabs and IgGs starting from 3 μM and 1 μM respectively for 15 min. The plates were washed and were subsequently incubated with a secondary HRP-conjugated anti-protein L monoclonal antibody (#32420, ThermoFisher, 1:6000 dilution). As with phage ELISA, the plates were again washed, developed with TMB substrate and quenched with 1.0 M HCl, and absorbance (Abs450) was determined. To determine the affinity (EC50), the data were fitted with a non-linear, 4-parameter logistic curve in OriginLab.

[3] = target: T3, Full-length human NT5E (recombinant, …); test: as above
Experimental: as §1

Binder | IC50 of NT5E phosphate production on MDA-MB-231 cells, +500 µM ATP [1] [nM] | EC50 [2] [nM] | EC50 [3] [nM]
B1 | 122 | 28 | 37
B2 | 2.2 | 0.57 | 0.86
